Measurements taken from publication PMC9097460, “The molecular basis of spinocerebellar ataxia type 48 caused by a de novo mutation in the ubiquitin ligase CHIP” (The Journal of Biological Chemistry, 2022).

Molecular target: the molecule itself
Test: SEC + other: mass photometry; recombinant CHIP run on size-exclusion chromatography, fractions analysed by mass photometry at 30 nM in 20 mM Hepes pH 8, 200 mM NaCl, 1 mM DTT

B1: CHIP A52G point mutant, recombinant (enzyme, human, UniProt Q9UNE7 1-303, looked up)
chain: MKGKEEKEGGARLGAGGGSPEKSPSAQELKEQGNRLFVGRKYPEAAACYGRGITRNPLVAVYYTNRALCYLKMQQHEQALADCRRALELDGQSVKAHFFLGQCQLEMESYDEAIANLQRAYSLAKEQRLNFGDDIPSALRIAKKKRWNSIEERRIHQESELHSYLSRLIAAERERELEECQRNHEGDEDDSHVRAQQACIEAKHDKYMADMDELFSQVDEKRKKRDIPDYLCGKISFELMREPCITPSGITYDRKDIEEHLQRVGHFDPVTRSPLTQEQLIPNLAMKEVIDAFISENGWVEDY
notes: CHIP (STUB1 product) with the patient's de novo A52G mutation (c.155C > G), introduced by QuikChange into the pGEX6p-1 construct; Mutation found in a patient with SCA48; also called A52G mutant; source: E. coli, purified
B1: binds.
